Experimental data from patent publication US20180037631A1 (Bristol-Myers Squibb, published 2018).
Positions count from the first letter of the chain named.

B1: E73 (designed binder)
10Fn3 domain: MGVSDVPRDLEVVVATPTSLLISWTKLLGGYQYYRITYGETGGNSPVQEFTVPGPVYTATISGLKPGVDYTITVYAVTDFFNPRTHEYQYHTTPISINYRTEIDKPSQ
B2: E74 (designed binder)
10Fn3 domain: MGVSDVPRDLEVVAATPTSLLISWRASGGLYQYYRITYGETGGNSPVQEFTVPGSVNTATISGLKPGVDYTITVYAVTDFYNPATYEYIYHTTPISINYRTEIDKPSQ
B3: E75 (designed binder)
10Fn3 domain: MGVSDVPRDLEVVAATPTSLLISWAAGRATYQYYRITYGETGGNSPVQEFTVPYDVTTATISGLKPGVDYTITVYAVTDFYNPATHEYYYETTPISINYRTEIDKPSQ
B4: E76 (designed binder)
10Fn3 domain: MGVSDVPRDLEVVAATPTSLLISWYSQPLTYQYYRITYGETGGNSPVQEFTVPHDVNTATISGLKPGVDYTITVYAVTDFYNPETHEYTYHLTPISINYRTEIDKPSQ
B5: E32 (designed binder)
10Fn3 domain: MGVSDVPRDLEVVAATPTSLLISWVSLVGFYQYYRITYGETGGNSPVQEFTVPGGVHTATISGLKPGVDYTITVYAVTDYKPHADGPHTYHESPISINYRTEIDKPSQ
B6: E33 (designed binder)
10Fn3 domain: MGVSDVPRDLEVVAATPTSLLISWASRKEVYQYYRITYGETGGNSPVQEFTVPGWLNTATISGLKPGVDYTITVYAVTDYMHVEYAEYPISINYRTEIDKPSQ
B7: E34 (designed binder)
10Fn3 domain: B5 10Fn3 domain with V25L, S26A, L27P, V28F, G29W, F30R, H57R
B8: E35 (designed binder)
10Fn3 domain: MGVSDVPRDLEVVAATPTSLLISWTPPGHQHQYYRITYGETGGNSPVQEFTVPGQVTTATISGLKPGVDYTITVYAVTDYYNPATHYYTYYTTPISINYRTEIDKPSQ
B9: E36 (designed binder)
10Fn3 domain: B5 10Fn3 domain with V25E, L27G, V28S, G29R, F30T, P66T, S93Y
B10: E37 (designed binder)
10Fn3 domain: MGVSDVPRDLEVVAATPTSLLISWERTSTHYQYYRITYGETGGNSPVQEFTVPGRVYTATISGLKPGVDYTITVYAVTDYYNPATHEYKYHQTPISINYRTEIDKPSQ
B11: E38 (designed binder)
10Fn3 domain: MGVSDVPRDLEVVAATPTSLLISWNARTDAYQYYRITYGETGGNSPVQEFTVPRDLETATISGLKPGVDYTITVYAVTDYKPHADGPHTYQESPISINYRTEIDKPSQ
B12: E39 (designed binder)
10Fn3 domain: B5 10Fn3 domain with V25Q, S26V, L27S, V28A, G29F, F30R, G55M, H57S, H91S, S93Y
B13: E40 (designed binder)
10Fn3 domain: MGVSDVPRDLEVVAATPTSLLISWVLGRRVYQYYRITYGETGGNSPVQEFTVPGAVYTATISGLKPGVDYTITVYAVTDYFNPATHEYQYELTPISINYRTEIDKPSQ
B14: E41 (designed binder)
10Fn3 domain: MGVSDVPRDLEVVAATPTSLLISWTPPNSGHNYYRITYGETGGNSPVQEFTVPHDLTTATISGLKPGVDYTITVYAVTDYYNPNTYEYTYQFTPISINYRTEIDKPSQ
B15: E42 (designed binder)
10Fn3 domain: MGVSDVPRDLEVVAATPTSLLISWVVPNWMYQYYRITYGETGGNSPVQEFTVPGMLETATISGLKPGVDYTITVYAVTDYYNPTTYEYTYFTYPISINYRTEIDKPSQ
B16: E43 (designed binder)
10Fn3 domain: B5 10Fn3 domain with V25S, S26G, L27G, V28F, G29M, F30R, G55Q, H57Y
B17: E44 (designed binder)
10Fn3 domain: MGVSDVPRDLEVVAATPTSLLISWDSEGPSYQYYRITYGETGGNSPVQEFTVPYAVYTATISGLKPGVDYTITVYAVTDYYNPRTHELFFQQYPISINYRTEIDKPSQ
B18: E45 (designed binder)
10Fn3 domain: MGVSDVPRDLEVVAATPTSLLISWQVPRPMYQYYRITYGEKGGNSPVQEFTVPHDLRTATISGLKPGVDYTITVYAVTDYYDPTSNLYNYNQTPISINYRTEIDKPSQ
B19: E59 (designed binder)
10Fn3 domain: B3 10Fn3 domain with A25R, G27R, A29L, T30Q, Y54G, D55M, H86M, Y89T, E91Q, T92R
B20: E60 (designed binder)
10Fn3 domain: MGVSDVPRDLEVVAATPTSLLISWLQPLWRYQYYRITYGETGGNSPVQEFTVPGGLDTATISGLKPGVDYTITVYAVTDYKPHVDGPHAYHEYPISINYRTEIDKPSQ
B21: E61 (designed binder)
10Fn3 domain: B2 10Fn3 domain with R25D, G28Q, L30N, S55A, N57K, Y81F, Y86H
B22: E62 (designed binder)
10Fn3 domain: MGVSDVPRDLEVVAATPTSLLISWCLDGQLYQYYRITYGETGGNSPVQEFTVPGSIVTATISGLKPGVDYTITVYAVTDWYNLATHEYNYRVTPISINYRTEIDKPSQ
B23: E63 (designed binder)
10Fn3 domain: MGVSDVPRDLEVVAATPTSLLISWDTSGASYQYYRITYGETGGNSPVQEFTVPYSVYTATISGLKPGVDYTITVYAVTDYYDPDSHYYNYNMVPISINYRTEIDKPSQ
B24: E64 (designed binder)
10Fn3 domain: B3 10Fn3 domain with A25D, A26S, R28N, A29G, D55R, T57Y, F80Y, Y89T, T92L, T93R
B25: E65 (designed binder)
10Fn3 domain: MGVSDVPRDLEVVATTPTSLLISWRPTSQVYQYYRITYGETGGNSPVQEFTVPYNVYTATISGLKPGVDYTITVYAVTDFFNYATHEYIYHTIPISINYRTEIDKPSQ
B26: E66 (designed binder)
10Fn3 domain: MGVSDVPRDLEVVAATPTSLLISWKSYGSAYQYYRITYGETGGNSPVQEFTVPGDLQTATISGLKPGVDYTITVYAITDYYNPDTHEYKYHVSPISINYRTEIDKPSQ
B27: E67 (designed binder)
10Fn3 domain: MGVSDVPRDLEVVAATPTSLLISWSSVMGLYQYYRITYGETGGNSPVQEFTVPYDVYTATISGLKPGVDYTITVYAVTDYYNPSTYEYKYNTTPISINYRTEIDKPSQ
B28: E68 (designed binder)
10Fn3 domain: MGVSDVPRDLEVVAATPTSLLISWKTEPGRHQYYRITYGETGGNSPVQEFTVPGGVRTATISGLKPGVDYTITVYAVTDWYNLVSHEYVYHTTPISINYRTEIDKPSQ
B29: E69 (designed binder)
10Fn3 domain: B3 10Fn3 domain with A25H, R28M, T30V, Y54G, T57L, Y81F, A84V, Y89M, E91H, T93I
B30: E70 (designed binder)
10Fn3 domain: MGVSDVPRDLEVVAATPTSLLISWVSARGRYQYYRITYGETGGNSPVQEFTVPGGVRTATISGLKPGVDYTITVYAVTDYYNLETYEYHYYRTPISINYRTEIDKPSQ
B31: E71 (designed binder)
10Fn3 domain: MGVSDVPRDLEVVAATPTSLLISWWFGTSSYQYYRITYGETGGNSPVQEFTVPGDLKTATISGLKPGVDYTITVYAVTDYFNPVTHEYEYHTTPISINYRTEIDKPSQ
B32: E72 (designed binder)
10Fn3 domain: B27 10Fn3 domain with S26A, V27T, M28R, G29T, Y57H, P83M, S84V, K89N, N91H, T92L

What follows are binders tested against T1, EGFR on the surface of human tumour cells (A431, H292) (human, UniProt P00533 25-1210) (assay: cell-based or functional assay).
In the case of B1, the “% inhibition of EGFR phosphorylation at 100 nM binder, cell-based assay” value (shortened to “% inhibition of EGFR phosphorylation”) is reported as 78.8%.
B2 was tested, and the “% inhibition of EGFR phosphorylation” value was 80.9%.
In the case of B3, the “% inhibition of EGFR phosphorylation” value is reported as 76.5%.
With B4 the “% inhibition of EGFR phosphorylation” value was 79%.

Biological target: T1, EGFR on the surface of human tumour …
Test: cell-based or functional assay
Remark: another data set of the same source
B5 was tested, and the “% inhibition of EGFR phosphorylation” value was 86%.
With B6 the “% inhibition of EGFR phosphorylation” value was 75.8%.
B7 was tested, and the “% inhibition of EGFR phosphorylation” value was 80.4%.
In the case of B8, the “% inhibition of EGFR phosphorylation” value is reported as 90.2%.
For B9, the “% inhibition of EGFR phosphorylation” value was 81.3%.
B10 was tested, and the “% inhibition of EGFR phosphorylation” value was 80.8%.
For B11, the “% inhibition of EGFR phosphorylation” value was 89.8%.
In the case of B12, the “% inhibition of EGFR phosphorylation” value is reported as 76.7%.
B13 was tested, and the “% inhibition of EGFR phosphorylation” value was 89.6%.
B14 was tested, and the “% inhibition of EGFR phosphorylation” value was 75.2%.
For B15, the “% inhibition of EGFR phosphorylation” value was 77.3%.
B16 was tested, and the “% inhibition of EGFR phosphorylation” value was 75%.
For B17, the “% inhibition of EGFR phosphorylation” value was 83.3%.
In the case of B18, the “% inhibition of EGFR phosphorylation” value is reported as 80.4%.

Biological target: T1, EGFR on the surface of human tumour …
Test: cell-based or functional assay
Remark: another data set of the same source
With B19 the “% inhibition of EGFR phosphorylation” value was 76.3%.
For B20, the “% inhibition of EGFR phosphorylation” value was 100%.
B21 was tested, and the “% inhibition of EGFR phosphorylation” value was 79.8%.
B22 was tested, and the “% inhibition of EGFR phosphorylation” value was 78.9%.
With B23 the “% inhibition of EGFR phosphorylation” value was 76.2%.
For B24, the “% inhibition of EGFR phosphorylation” value was 78.2%.
B25 was tested, and the “% inhibition of EGFR phosphorylation” value was 80.7%.
For B26, the “% inhibition of EGFR phosphorylation” value was 75%.
For B27, the “% inhibition of EGFR phosphorylation” value was 75.3%.
B28 was tested, and the “% inhibition of EGFR phosphorylation” value was 78.5%.
In the case of B29, the “% inhibition of EGFR phosphorylation” value is reported as 85.1%.
For B30, the “% inhibition of EGFR phosphorylation” value was 76.8%.
With B31 the “% inhibition of EGFR phosphorylation” value was 80.4%.
With B32 the “% inhibition of EGFR phosphorylation” value was 82.8%.
